Laboratory results reported in publication PMC3026807.

Molecular target: Arg224 (UniProt position 224, YHALYRYFVEL)
Experiment: electrophysiology

Substance | pKa (pHo-gated channel, closed to open on alkalinization, non-concatenated WT, cited from earlier work) | pKa (Bath (mM): 67.5 Na2SO4, 4 KCl, 1 K gluconate, 2 CaCl2, 1 MgCl2, 105 sucrose (standard solution). The article does not state explicitly which bath was used for Figure 5. Pipette: 140 mM KCl., 10 mM Hepes/Tris, MES for pH 5.0-6.5, AMPSO for pH 8.5-9.0, CAPS for pH 9.5-11.0, concatenated WT-WT channel, pHo gating)
TASK-2 (K2P5.1, KCNK5) two-pore-domain potassium channel (Mus musculus) | 8.0 | –
TASK-2 WT-WT concatenated tandem dimer (Mus musculus; deletion of the C-terminal 148 residues (after V354) in the first protomer; insertion of L355-D356 linker; no substitution at R224 in either protomer) | – | 8.2±0.15
